# Measurements published in the DeepSol protein solubility set.
# Test: soluble on expression in E. coli; label from the status in PepcDB or PDB records
row,Sequence,soluble on expression in E. coli
1,MKSFCDNDDNNHSNTTNLLGFSLSSNMMKMGGRGGREAIYSSSTSSAATSSSSVPPQLVVGDNTSNFGVCYGSNPNGGIYSHMSVMPLRSDGSLCLMEALNRSSHSNHHQDSSPKVEDFFGTHHNNTSHKEAMDLSLDSLFYNTTHEPNTTTNFQEFFSFPQTRNHEEETRNYGNDPSLTHGGSFNVGVYGEFQQSLSLSMSPGSQSSCITGSHHHQQNQNQNHQSQNHQQISEALVETSVGFETTTMAAAKKKRGQEDVVVVGQKQIVHRKSIDTFGQRTSQYRGVTRHRWTGRYEAHLWDNSFKKEGHSRKGRQVYLGGYDMEEKAARAYDLAALKYWGPSTHTNFSAENYQKEIEDMKNMTRQEYVAHLRRKSSGFSRGASIYRGVTRHHQHGRWQARIGRVAGNKDLYLGTFGTQEEAAEAYDVAAIKFRGTNAVTNFDITRYDVDRIMSSNTLLSGELARRNNNSIVVRNTEDQTALNAVVEGGSNKEVSTPERLLSFPAIFALPQVNQKMFGSNMGGNMSPWTSNPNAELKTVALTLPQMPVFAAWADS,soluble
2,MKSIGTQILQTERLILRRFVESDAEAMFQNWASSAENLTYVTWDPHPDVEITRNSICNWVASYTNLNYYKWAICLKENPEQVIGDISIVKIDEADLSCEIGYVLGKAYWGNGMMTETLKAILDFCFTQAGFQKVRARYASLNPASGRVMEKAGMSYLQTIVNGVERKGYLADLIYYGISREEC,not soluble
3,MKSIIIAAPHSGSGKTTITLGIMECLKRRGLTVAPFKVGPDFIDPGYHRLICGRPSVNLDGWMCGGDFVQETFFHHAAGADIAVVEGVMGLFDGIGGVSDEGSTAEVAKLLGGPVVLVADAKGQARSVAALVKGFADFDPEVRVVGVIFNNVASDAHGRILREAVESHLPDVRVLGCIPRDESLSIPSRHLGLFTVDENPLPAEFLDHLVEVVREHVDLGMLWSVATLQGASDVKRRQDAPRREPVRIGVARDAAFCFVYEDNLRLLREAGAELVEFSPLADRELPEGVAGLYLPGGYPEVFADVLADNTPMKDAVRGAVVGEMPVYAECGGFIYLSRGVTGMRDDLESFNEFVGIFPVATLMLPRRKALGYREVELAADSIIGPVGAMARGHEFHYSEMEAMPPEVERLYRVRRAGIDLGTEGYRHRNCLASYVHIHFGSCPDMAEAFVNHCRNYAQRSHSLEHHHHHH,soluble
4,MKSILEQLSSITVVVADTGDLDAIKKFQPRDATTNPSLILAAAKNPDYIKLIDQALESSRKSLPAGFSESELIKETIDQVSVFFGKEILNLISGRVSTEVDARLSFDTEATVTKARKLINHYKSFGINKERILIKIASTWEGIKAAEILEKEGIKCNLTLLFNFCQAVACANAKITLISPFVGRILDWHKAKTGKDNFAGCEDPGVISVTKIYNYFKEKGFKTEVMGASFRNIDEIKELAGCDLLTIAPKFLDELNREEGELIKKLDEDTQSQSSIDYKFDEKDFRLSMLEDQMASEKLSEGITGFSKAIEELEELLLKRLSEINNQKLISTT,not soluble
5,MKSTMGIILTGGKNDRLKELAEMRSSTAVPIGGKYRVIDFVLSNMVNSGIKNIGVLTQYSFRSLMDHLGSGKEWDLDRRNEGLFIFPPYLAGEHSGWYQGSADAMYHNITFLKRSYEEYVLVAQGNCVYKMLFDDMLDYHIKKNADITIAYRDMSDFPREELSFMGVMTMDENRRVVDFKEKHKNPESTICSMGIYILKRELLIALLEECNSHGKYDFVKDVIINKLPTLNIYGYKFEGYWRNLNSINAYYRINMEMLNPEIRYQLFEQHGKVYTKVKDEPPAKYNEEAEVRNSIIADGCIIEGTVINSVLFRGVTIKRNAVVKDCIIMQDSVIEEDVDIESLIIDKNVYLSKGIRLKGMVNFPITIGKNAVI,not soluble
6,MKTAIIQLPGLNRDRDMVAALHHITGVEPLKIWQTESTIPDVDVIVIPGGFSYGDYLRCGAIGARTPVLQAVREKAQKGVTVIGICNGFQILLEAGLLPGTLMRNTSLKFVCREIKLEVVNVNTKFSRYYSKGQIICCPVAHHDGNYFVDSETLKQMEENEQIIFRYAENTNPNGSVNDIAGIINKAGNILGMMPHPENFIEPAHGGTDGRLFFQSALELAKG,not soluble
7,MKTHKTKNDLPSNAKSTVIGILNESLASVIDLALVTKQAHWNLKGPQFIAVHELLDTFRTQLDNHGDTIAERVVQLGGTALGSLQAVSSTTKLKAYPTDIYKIHDHLDALIERYGEVANMIRKAIDDSDEAGDPTTADIFTAASRDLDKSLWFLEAHVQEKS,soluble
8,MKTIGLLGGMSWESTIPYYRLINEGIKQRLGGLHSAQMLLHSVDFHEIEECQRRGEWDKTGDILAEAALGLQRAGAEGIVLCTNTMHKVADAIESRCTLPFLHIADATGRAITGAGMTRVALLGTRYTMEQDFYRGRLTEQFSINCLIPEADERAKINQIIFEELCLGQFTEASRAYYAQVIARLAEQGAQGVIFGCTEIGLLVPEERSVLPVFDTAAIHAEDAVAFMLS,not soluble
9,MKTLGYILMENGEKIDLEFFPEEAPKTVENFKKLAEQGFYDGVTFHRVIPGFVSQGGDPTGTGAGGPGYSIPCETDGNPHRHLVGSLSMAHAGRNTGGSQFFIVHEPQPHLDGVHTVFGKATSGIETVLNMRQGDVMKEVKVWEE,not soluble
10,MKTLLLLIPLVLTACGTLTGIPAHGGGKRFAVEQELVAASSRAAVKEMDLSALKGRKAALYVSVMGDQGSGNISGGRYSIDALIRGGYHNNPDSATRYSYPAYDTTATTKSDALSGVTTSTSLLNAPAAALTKNNGRKGERSAGLSVNGTGDYRNETLLANPRDVSFLTNLIQTVFYLRGIEVVPPEYADTDVFVTVDVFGTVRSRTELHLYNAETLKAQTKLEYFAVDRDSRKLLIAPKTAAYESQYQEQYALWMGPYSVGKTVKASDRLMVDFSDITPYGDTTAQNRPDFKQNNGKNPDVGNEVIRRRKGG,not soluble
11,MKTLTTERLILRLVSVDDAPFILELYNHPDFYRFVGDKQMRTDYEAVRYIKENMLRMEEKKGVSLLVVEDKQTKQPLGICGLVKRDTLNAYDIGYGFLPSAYGQGFAIEAAKAVIEYAKQAMQLSQLLAITNNDNIRSISLLKKLGFEFEHVEQQYDNGRTLELYTLQL,not soluble
12,MKTNREQEIYVERSFKPNNSTIQNLMDIERFILPHTSTSGVARLKMRVISWVGLQFYNY,soluble
13,MKTSIIILTCNNLRYSRRCIESIKKYTEKEAYEIIVVDNNSNDGTRNWLSKQKAIKKIYNNVNVGFPRGCNMGIKVACGSEVLLLNNDVVVTHNWLNNLRNCLYSSYEIGAVGPISNNCSNGQKINVRYDSIEDMHRFSKKYNISNKKKWTEVKRLIGFCFLIKRNVIRKVGLFDERFTPGNFEDDDYCIRMRKIGFRLMLCKDTFVHHYGSVSFKNTQYLKLLEVNKSKLEKKWGKSYDKLVLEHHHHHH,not soluble
14,MKTVRCSILGFGAIGQGVAEVLLMKKEYLESIGLEIIVVAVVDSRGATINPEGVDLADCLARKRTTGTVAIEKITGVEVIKSIDHDLVIETTPTNIVTGGAGLQNMFAAFEIGKDVITSNKGPLTLKYRELMEAAKVAGSSFRFEATVGGSMPIINLANEVLAGNRLKSIKGILNGTCNYILTRMLEERASYKDILAESMELGIAETDPTYDVDGIDTACKLVILANAIFGLNATYKDVEVTGITKITPEALEMAYERGHVIKLIGEVSRERIHVAPRLVPINHPLDVRGTLNVASIDTELAGEITVTGKGAGPVETASAILSDLIAIYGNQLEHHHHHH,soluble
15,MKVCLQCENFFSSADWACPSCGYQPERLNGIEAHASEFAHGGGGFKPEYFSELSRLEAGNFWFRARNELILWALRTYKPNAGAFLEVGCGTGFVLSGIARACPEIALNGSEIFLAGLFHAAKRVPSTHFMQMDARRVPFVEEFDAIGAFDVLEHIEEDETVLAQLHNAIKPSGVLLLTVPQHPRLWSASDDYACHVRRYTRVEIEQKVLTAGFELLRSSSFVTSLLPVMMLSRVLQKRKTKDFDPAGELKINAALNKVFYGLMMLELAGIRLGMNYPVGGSRLVVAKKQSALEHHHHHH,not soluble
16,MKVGGIEDRQLEALKRAALKACELSYSPYSHFRVGCSILTNNDVIFTGANVENASYSNCICAERSAMIQVLMAGHRSGWKCMVICGDSEDQCVSPCGVCRQFINEFVVKDFPIVMLNSTGSRSKVMTMGELLPMAFGPSHLN,soluble
